Test results published in patent publication US11110182B2, “Multifunctional RNA nanoparticles and methods for treating cancer and therapeutic resistant cancer” (University of Cincinnati, priority 2016, dated 2021).

Key:
[1] = Stability analyses (RNase A, 10% FBS DMEM, 8 M urea) by native PAGE; type: in vitro ADME; settings: 37° C.
Description: FIG. 1A) The scheme of the pRNA-HER2apt-siMED1 (p-HER2-siMED1) (SEQ ID NO: 15) structure. FIG. 1B) The p1 and p2 strands of pRNA-HER2apt-siMED1_were transcribed using an in vitro RNA transcription system and separated in 8% denatured PAGE gel. FIG. 1C) pRNA-HER2apt-siMED1 nanoparticles were generated by annealing equal molar of strands p1 and p2, and subjected to 8% native PAGE gel electrophoresis. FIG. 1D) DLS assay of hydrodynamic size of pRNA-HER2apt-siMED1 nanoparticle. FIG. 1E) The Tm value of pRNA-HER2apt-siMED1 nanoparticle determined by TGGE assay. FIG. 1F) The atomic force microscopy (AFM) images of pRNA-HER2apt-siMED1 nanoparticles. FIG. 1G) The stability of control unmodified and 2′-F modified pRNA nanoparticles was examined by 8% native PAGE gel electrophoresis after RNase A, 10% FBS-supplemented DMEM medium and 8M urea treatments for the indicated time at 37° C.
Cell culture. Human breast cancer luciferase-overexpressing BT474 and MDA-MB-231 cells were maintained in DMEM medium (Hyclone, Thermo Scientific) supplemented with 10% fetal bovine serum (FBS, Sigma) and 1% penicillin/streptomycin (Corning) at 37° C. in a humidified atmosphere with 5% CO2.^53 • Generation of pRNA nanoparticles. The two strands of pRNA were synthesized with the DNA templates, which were amplified with overlapping primers (Sigma) by PCR methods, using a T7 promoter-controlled in vitro RNA transcription system as previously described^33 (Table 1). All the CTP and UTP used for synthesis of the pRNA nanoparticles were 2′-fluoro modified, except the control unmodified pRNA nanoparticles used in the stability assays. […] The hydrodynamic diameter and Tm value of pRNA nanoparticles were determined using dynamic light scattering and TGGE assay, respectively, as previously described.^54 The AFM imaging of the pRNA nanoparticles was performed at the University of Nebraska Medical Center imaging facility as previously reported.^55 Briefly, the pRNA nanoparticles (5 μL) were deposited on APS modified mica ^56 for a total of 2 min of incubation time. […]

MCF-7/HER2 cells = assay: MTT assay, MCF-7/HER2 cells; type: cell-based, human; settings: MCF-7/HER2, 10 μg/mL pRNA and 1 μM tamoxifen, 48 h
Method: FIGS. 10A-10D. Evidence that pRNA-HER2apt-siMED1 nanoparticles silenced MED1 expression and sensitized two other HER2+ breast cancer cells to tamoxifen treatment. FIG. 10A) Two HER2-overexpressing breast cancer cell lines MCF7/TAM and FIG. 10B) MCF7/HER2, were treated with 10 μg/mL pRNA-HER2apt-siMED1 nanoparticles or scramble control for 48 h, and then MED1 protein level was determined using western blots. FIG. 10C) MCF7/TAM and FIG. 10D) MCF7/HER2 cells were treated with 10 μg/mL pRNA nanoparticles and/or 1 μM tamoxifen (TAM) as indicated for 48 h, and then cell growth was determined using an MTT assay.
Since MED1 has recently been reported to play key roles in tamoxifen resistance of human breast cancer, the combinational effects of pRNA-HER2apt-siMED1 nanoparticles with tamoxifen on the growth and metastatic potential of BT474 cells was examined. […] The combinational effect of pRNA-HER2apt-siMED1 nanoparticles with tamoxifen treatment on two other HER2-overexpressing breast cancer cells MCF-7/HER2 and MCF-7/TAM were also confirmed (FIGS. 10C-D).

B1: pRNA-HER2apt-siMED1: 3-WJ pRNA nanoparticle bearing a HER2-targeting RNA aptamer and two different MED1 siRNAs; strands p1 SEQ ID NO: 3, p2 SEQ ID NO: 4 (nucleic acid)
chain 1: GGACAGUGAAAGUGAGUCAAAGGAUCAAUCAUGGCCAAAGAUGUUACUUUGAGAGCCUU
chain 2: GGCUCUCAAAGUAACAUCUAAGGCCAUGUGUAUGUGGGGGGAGGACGAUGCGGUCUGCUGUGCUUGAUAUGCCCCAGACGACUCGCCCCCCACAUACUUUGUUGAUCCAAUGACUCACUUUCACUGUCCUU
modifications: 2'-F modification; third strand may lack entry; pRNA-HER2apt-siMED1, p1; pRNA-HER2apt-siMED1, p2
In the case of B1, the “resistance to RNase A treatment” value ([1]; 10 μg/mL RNase A) is reported as “resistant”, the “structure in 8M urea” value ([1]; 8M urea) is reported as “maintained their structure” and the “stability in 10% FBS-supplemented DMEM medium” value [1] is reported as “highly stable”. For the same molecule, the “combinational effect with tamoxifen on cell growth” value (MCF-7/HER2 cells) was “confirmed”.
